The chains are these.
B1: Transcription regulatory protein SNF2 (Saccharomyces cerevisiae), P22082 (parent)
chain: MNIPQRQFSNEEVNRCYLRWQHLRNEHGMNAPSVPEFIYLTKVLQFAAKQRQELQMQRQQQGISGSQQNIVPNSSDQAELPNNASSHISASASPHLAPNMQLNGNETFSTSAHQSPIMQTQMPLNSNGGNNMLPQRQSSVGSLNATNFSPTPANNGENAAEKPDNSNHNNLNLNNSELQPQNRSLQEHNIQDSNVMPGSQINSPMPQQAQMQQAQFQAQQAQQAQQAQQAQQAQARLQQGRRLPMTMFTAEQSELLKAQITSLKCLVNRKPIPFEFQAVIQKSINHPPDFKRMLLSLSEFARRRQPTDQNNQSNLNGGNNTQQPGTNSHYNNTNTDNVSGLTRNAPLDSKDENFASVSPAGPSSVHNAKNGTLDKNSQTVSGTPITQTESKKEENETISNVAKTAPNSNKTHTEQNNPPKPQKPVPLNVLQDQYKEGIKVVDIDDPDMMVDSFTMPNISHSNIDYQTLLANSDHAKFTIEPGVLPVGIDTHTATDIYQTLIALNLDTTVNDCLDKLLNDECTESTRENALYDYYALQLLPLQKAVRGHVLQFEWHQNSLLTNTHPNFLSKIRNINVQDALLTNQLYKNHELLKLERKKTEAVARLKSMNKSAINQYNRRQDKKNKRLKFGHRLIATHTNLERDEQKRAEKKAKERLQALKANDEEAYIKLLDQTKDTRITHLLRQTNAFLDSLTRAVKDQQKYTKEMIDSHIKEASEEVDDLSMVPKMKDEEYDDDDDNSNVDYYNVAHRIKEDIKKQPSILVGGTLKDYQIKGLQWMVSLFNNHLNGILADEMGLGKTIQTISLLTYLYEMKNIRGPYLVIVPLSTLSNWSSEFAKWAPTLRTISFKGSPNERKAKQAKIRAGEFDVVLTTFEYIIKERALLSKVKWVHMIIDEGHRMKNAQSKLSLTLNTHYHADYRLILTGTPLQNNLPELWALLNFVLPKIFNSVKSFDEWFNTPFANTGGQDKIELSEEETLLVIRRLHKVLRPFLLRRLKKDVEKELPDKVEKVVKCKMSALQQIMYQQMLKYRRLFIGDQNNKKMVGLRGFNNQIMQLKKICNHPFVFEEVEDQINPTRETNDDIWRVAGKFELLDRILPKLKATGHRVLIFFQMTQIMDIMEDFLRYINIKYLRLDGHTKSDERSELLRLFNAPDSEYLCFILSTRAGGLGLNLQTADTVIIFDTDWNPHQDLQAQDRAHRIGQKNEVRILRLITTNSVEEVILERAYKKLDIDGKVIQAGKFDNKSTSEEQEALLRSLLDAEEERRKKRESGVEEEEELKDSEINEILARNDEEMAVLTRMDEDRSKKEEELGVKSRLLEKSELPDIYSRDIGAELKREESESAAVYNGRGARERKTATYNDNMSEEQWLRQFEVSDDEKNDKQARKQRTKKEDKSEAIDGNGEIKGENIDADNDGPRINNISAEDRADTDLAMNDDDFLSKKRKAGRPRGRPKKVKLEGSENSEPPALESSPVTGDNSPSEDFMDIPKPRTAGKTSVKSARTSTRGRGRGRGRGRGRGRGRGRPPKARNGLDYVRTPAAATSPIDIREKVAKQALDLYHFALNYENEAGRKLSDIFLSKPSKALYPDYYMIIKYPVAFDNINTHIETLAYNSLKETLQDFHLIFSNARIYNTEGSVVYEDSLELEKVVTKKYCEIMGDNSQLDFTEFDEQYGTRPLVLPPVVTSSVAESFTDEADSSMTEASV

In this assay the parent is B1. The settings on record: with h4_yeast HHF1, P02309.
Regarding E1069K;D1121K, the “effect of a mutation on the interaction” value was “disrupting interaction”.

Source of the values: IntAct's records for PubMed 28424519.
